Vmax (amol/cell.min) and Km data for 1 protein are collected here from ChEMBL document CHEMBL4371014, “Novel Allosteric Ligands of γ-Aminobutyric Acid Transporter 1 (GAT1) by MS Based Screening of Pseudostatic Hydrazone Libraries” (J Med Chem, 2018).

As a reminder, the Km is the substrate concentration at which the rate is half of its maximum.

Compound in data set [1]: O=C(O)[C@H]1CNC[C@@H](CN/N=C/c2ccc(-c3cc(C(F)(F)F)cc(C(F)(F)F)c3)o2)C1
Briefly: (§1) Non-competitive inhibition of human GAT1 expressed in COS cells assessed as reduction in [2H6]GABA uptake by measuring [2H6]GABA Vmax at 10 uM preincubated for 25 mins followed by [3H]GABA addition and measured after 4 mins by liquid scintillation counting method (reference value: 570 +/- 53 amol/cell.min). The class given is cell-based.

Compound in data set [2]: O=C(O)[C@H]1CNC[C@@H](CN/N=C/c2ccc(-c3cccc4ccccc34)o2)C1
Described as §1. The class given is cell-based.

Compound in data set [3]: O=C(O)[C@H]1CNC[C@@H](CN/N=C/c2ccc(-c3cc(C(F)(F)F)cc(C(F)(F)F)c3)o2)C1
Kind of data set: (§2) Non-competitive inhibition of human GAT1 expressed in COS cells assessed as reduction in [2H6]GABA uptake by measuring [2H6]GABA Km(app) at 10 uM preincubated for 25 mins followed by [3H]GABA addition and measured after 4 mins by liquid scintillation counting method (reference value: 12 +/- 1.2 uM). It counts as cell-based.

Compound in data set [4]: O=C(O)[C@H]1CNC[C@@H](CN/N=C/c2ccc(-c3cccc4ccccc34)o2)C1
Described as §2. The class given is cell-based.

Compound in data set [5]: O=C(O)[C@H]1CNC[C@@H](CN/N=C/c2ccc(-c3cc(C(F)(F)F)cc(C(F)(F)F)c3)o2)C1
Briefly: (§3) Non-competitive inhibition of human GAT1 expressed in COS cells assessed as reduction in [2H6]GABA uptake by measuring [2H6]GABA Vmax at 30 uM preincubated for 25 mins followed by [3H]GABA addition and measured after 4 mins by liquid scintillation counting method (reference value: 570 +/- 53 amol/cell.min). The class given is cell-based.

Compound in data set [6]: O=C(O)[C@H]1CNC[C@@H](CN/N=C/c2ccc(-c3cccc4ccccc34)o2)C1
Described as §3. The class given is cell-based.

Compound in data set [7]: O=C(O)[C@H]1CNC[C@@H](CN/N=C/c2ccc(-c3cc(C(F)(F)F)cc(C(F)(F)F)c3)o2)C1
Briefly: (§4) Non-competitive inhibition of human GAT1 expressed in COS cells assessed as reduction in [2H6]GABA uptake by measuring [2H6]GABA Km(app) at 30 uM preincubated for 25 mins followed by [3H]GABA addition and measured after 4 mins by liquid scintillation counting method (reference value: 12 +/- 1.2 uM). It counts as cell-based.

Compound in data set [8]: O=C(O)[C@H]1CNC[C@@H](CN/N=C/c2ccc(-c3cccc4ccccc34)o2)C1
The data set is described as §4. The class given is cell-based.

Substrate in data set [9]: Cc1ccsc1C(=CCCN1CCC[C@@H](C(=O)O)C1)c1sccc1C
As to conditions: Homo sapiens; 100 nM.

Substrate in data set [10]: Cc1ccsc1C(=CCCN1CCC[C@@H](C(=O)O)C1)c1sccc1C
As to conditions: Homo sapiens; 100 nM. The source holds these as a separate data set.

Substrate in data set [11]: Cc1ccsc1C(=CCCN1CCC[C@@H](C(=O)O)C1)c1sccc1C
As to conditions: Homo sapiens; 300 nM.
Description: Mixed-type inhibition of human GAT1 expressed in COS cells assessed as reduction in [2H6]GABA uptake by measuring [2H6]GABA Vmax at 300 nM preincubated for 25 mins followed by [3H]GABA addition and measured after 4 mins by liquid scintillation counting method

Substrate in data set [12]: Cc1ccsc1C(=CCCN1CCC[C@@H](C(=O)O)C1)c1sccc1C
The settings on record: Homo sapiens; 300 nM. This is another data set of the same source.

B1: Sodium- and chloride-dependent GABA transporter 1 (Homo sapiens), P30531 (protein)
chain: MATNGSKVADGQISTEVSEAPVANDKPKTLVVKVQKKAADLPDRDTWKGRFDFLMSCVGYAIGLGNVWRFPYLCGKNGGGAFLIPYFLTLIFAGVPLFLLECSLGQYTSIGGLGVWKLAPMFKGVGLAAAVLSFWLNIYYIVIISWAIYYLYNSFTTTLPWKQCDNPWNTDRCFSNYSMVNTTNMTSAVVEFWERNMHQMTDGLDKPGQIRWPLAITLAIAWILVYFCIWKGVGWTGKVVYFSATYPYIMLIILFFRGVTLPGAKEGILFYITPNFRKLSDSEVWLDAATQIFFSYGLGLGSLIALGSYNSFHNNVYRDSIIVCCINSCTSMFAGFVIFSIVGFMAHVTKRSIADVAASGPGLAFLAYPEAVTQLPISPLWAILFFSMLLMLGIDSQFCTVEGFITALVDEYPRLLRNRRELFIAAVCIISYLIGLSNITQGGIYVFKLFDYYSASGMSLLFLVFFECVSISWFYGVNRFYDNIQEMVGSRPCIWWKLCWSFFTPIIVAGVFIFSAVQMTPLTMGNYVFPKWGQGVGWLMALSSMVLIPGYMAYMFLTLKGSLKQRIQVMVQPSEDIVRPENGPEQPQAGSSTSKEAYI
On to B1, for which the Vmax (amol/cell.min) in data set [1] is 341; in data set [2] it was 332; in data set [5], 183; in [6], 165; in data set [10] it was 491; in data set [11] it was 419. In addition, the Km in data set [3] amounted to 8.2 µM; in data set [4], 10.1 µM; in data set [7], 5.1 µM; in [8], 5.7 µM; in data set [9] it was 19.7 µM; in [12] it was 29.4 µM.
